Assay results as given in the supplement of paper PMC12764529.
± gives the half width of the 95% confidence interval.

Assay: folding stability dG unfold (combined trypsin and chymotrypsin); higher = more stable
How it was run: (§1)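 K50 was inferred by Bayesian fitting of sequencing counts obtained after protease digestion of designed mini-proteins. Unfolding free energy was derived by comparison with a sequence-predicted unfolded-state K50 and a shared folded-state K50, for each protease or both combined. The mini-proteins were under 80 residues, had no cysteine, were carried in a PA-tagged cDNA display construct, and were kept only if AlphaFold2 dimer inter-PAE exceeded 15.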

Question: For “SAGGSAGGSASIEVEAEPAEIEKVAEEAPEDEEVLVRDPKTGRVYLVKPDEVVLLREVPALLSAGGSAGGSA [r18_246_JUSTAS]”, which “folding stability dG unfold” value is on record?
Answer: The value was -0.821 ± 0.48 kcal/mol.

Question: With “SAGGSAGGSAGGSMYVIVTVPPGERLTFPLNPEIDVPEEEIKEKLKKELPVESIEILLPSAGGSAGGSAGGS [r4_116_JUSTAS]” as the sequence, how does the “folding stability dG unfold” value read?
Answer: The value was -0.813 ± 0.99 kcal/mol.

Question: Which “folding stability dG unfold” value does the source give for “SAGGDPGAEKIGTKTYPVGDKELTIETYRLPDPDELKVVVTDPTDGKTTPITVSLSEPPNIPVAELLSAGGS [r16_768_JUSTAS]” here?
Answer: Its value is under -1 kcal/mol.

Question: With “SAGGSAGGSREIKIDDFERHNGYYYITVEIKDPNNGKKRPLEIPYPPNQPNADRFAKDIADELSAGGSAGGS [r12_415_TrROS]” as the sequence, how does the “folding stability dG unfold” value read?
Answer: The value was under -1 kcal/mol.

Question: Which “folding stability dG unfold” value does the source give for “SAGGSAGGSAKKIDVEVDEPVPNGYYRATIRVPGPGKPIEVNVPGPWEDAERKAKELAKELSAGGSAGGSAG [r3_104_TrROS]” here?
Answer: Its value is under -1 kcal/mol.

Question: For “AAVIPTPTAEPVKVETLSTEVSPSLFPSPAAGGPRVLRTVVTTKTTVAVQTEDAWVEVETTTTTTEVLPPES [r1_112_JUSTAS]”, which “folding stability dG unfold” value is on record?
Answer: Its value is under -1 kcal/mol.

Question: With “SAGGSAGGSAGGMITIEEDPNKDLKTVTVYVPEKPKWVTVDVKPSETIEEALAKAEELLKSAGGSAGGSAGG [r7_138_JUSTAS]” as the sequence, how does the “folding stability dG unfold” value read?
Answer: Its value is -0.514 ± 0.18 kcal/mol.

Question: Which “folding stability dG unfold” value does the source give for “SMLTSPDGTSVTIETKVSPSAGPLPPFFEQTYDPSKDTITVNAPASPEEVAAIRAAPGLETLAVTFTPAESA [r9_827_JUSTAS]” here?
Answer: Its value is under -1 kcal/mol.

Question: Which “folding stability dG unfold” value does the source give for “SAGGWRMEIEFPGINPEELRKAIAEAPGNKDVDVDVERIPKDGSVKIEMHGNNPADRKRIQKAVKKAFSAGG [r13_580_TrROS]” here?
Answer: The value was under -1 kcal/mol.

Question: With “SAGGSAGGSAGSPIPVEVKVTTFGPGGVPREAELLTGDPAAFEKAIGKPLPDGSKVEVLLSAGGSAGGSAGG [r11_671_JUSTAS]” as the sequence, how does the “folding stability dG unfold” value read?
Answer: Its value is -0.955 ± 0.48 kcal/mol.

Question: With “SAGGSAGGEPRELEAEVEVIEFPPTGVALAVIRVNDGAEPRLIPVPFDAPEDVTPEELAKKILGSAGGSAGG [r6_20_TrMRF]” as the sequence, how does the “folding stability dG unfold” value read?
Answer: The value was under -1 kcal/mol.

Question: For “SMYRIEVVRDGKPIPREAVEAAAEAIERARGRPISPEALARELASVPNTVVTVEAYDEPGKPLGTLTFAESA [r9_1045_TrMRF]”, which “folding stability dG unfold” value is on record?
Answer: The value was -0.703 ± 0.37 kcal/mol.

Question: With “SAGGSAGGSAGGMPELTVETEGFPDGSYRVVVTNPGTGELVAVAERPSSTSVADFAKELASAGGSAGGSAGG [r7_633_TrMRF]” as the sequence, how does the “folding stability dG unfold” value read?
Answer: Its value is under -1 kcal/mol.

Question: For “SAGGMKIRLDNGKEIEINQSPGYMSIQIRPPDDGKKREYPFPMPDGENSMEDFVNEIANHGRITEIEPSAGG [r13_579_TrROS]”, which “folding stability dG unfold” value is on record?
Answer: Its value is -0.249 ± 0.23 kcal/mol.

Question: Which “folding stability dG unfold” value does the source give for “MEFTITVEYDEETNELTVTITYPGYTIEIRIDPDGRIRVEVRMDPGMSEEERKRMQELAEELAKKLEEALKS [r1_468_TrROS_Hall]” here?
Answer: The value was over 6 kcal/mol.

Question: Which “folding stability dG unfold” value does the source give for “SAGGSAGGSAGGSAVERIIKEMREKFPPGKEVEIPIEVRTDNGNYVPIEIEFRIPPDQPSAGGSAGGSAGGS [r10_11_TrROS]” here?
Answer: Its value is under -1 kcal/mol.

Question: Which “folding stability dG unfold” value does the source give for “SFRIEPDPDGTVTVRIPKDFPNKPAEEIADYIQKAFGPGMKIDKDIKIEPDPENGWVEITVKVKLPPGAKSA [r9_1011_TrROS]” here?
Answer: Its value is 0.0899 ± 0.33 kcal/mol.

Question: For “SAGGSAGGSAGGNKEVEIPIMIYWPDPNGKPNMHTVEIDMPNNDLPDIKDWAEDNPWTIMSAGGSAGGSAGG [r7_539_TrROS]”, which “folding stability dG unfold” value is on record?
Answer: The value was -0.532 ± 0.22 kcal/mol.

Question: With “SAGGSAGGSAGGTPFKAKDPKTDKVYLGEKDPVSGKVTITDPNTGNPIIVPGGEIEFIVSAGGSAGGSAGGS [r10_28_JUSTAS]” as the sequence, how does the “folding stability dG unfold” value read?
Answer: Its value is -0.282 ± 0.16 kcal/mol.

Question: With “SAGGSAGGSAKPLTVDEILKNLDFPPNMEIEDIEVDQDENEGKPVISIEMYSPGQPYRPTIVSAGGSAGGSA [r18_354_TrROS]” as the sequence, how does the “folding stability dG unfold” value read?
Answer: The value was under -1 kcal/mol.

Question: Which “folding stability dG unfold” value does the source give for “SAGGSDLITTEETFVGPGGEITLRTTTVDPKTGKTTTTTTTIPVIKGPPSDPAKIEAELKKRGIPLSAGGSA [r2_304_JUSTAS]” here?
Answer: Its value is -0.799 ± 0.29 kcal/mol.

Question: For “SAGGSAGGSAGGWKTISVNELQDILREEGKPMTADDLIEDPNIKVEENPGNGMPTIEIPPSAGGSAGGSAGG [r7_180_TrROS]”, which “folding stability dG unfold” value is on record?
Answer: Its value is -0.77 ± 0.79 kcal/mol.

Question: With “SAGGSAGGSAGGVLYLPDDVKVELVEVTPDGVAKLRVYVYEKDDGDPLVPVPGYDPGAGSAGGSAGGSAGGS [r10_934_TrMRF]” as the sequence, how does the “folding stability dG unfold” value read?
Answer: The value was -0.777 ± 0.48 kcal/mol.

Question: For “VNPRTLTYDPVTNRIDAATPDGTPVTVTAGSSGYTATVTDPATGAPTVVPLTEAELAALEADPAFPLATSNS [r1_18_JUSTAS]”, which “folding stability dG unfold” value is on record?
Answer: Its value is -0.115 ± 0.056 kcal/mol.

Question: For “SAGGSASTREVGDKTLTVTPIKLPNGTNLVLLRTFDPATGKVPVLAFPPEEGNPLGESVLPASELLSAGGSA [r15_671_JUSTAS]”, which “folding stability dG unfold” value is on record?
Answer: The value was under -1 kcal/mol.

Question: With “SAGGSAGGSGMERVEAVREALVPGDPDAVPAPITYDPQTGKLTYSVSDPRVAAALAADPLVSLSAGGSAGGS [r12_623_JUSTAS]” as the sequence, how does the “folding stability dG unfold” value read?
Answer: The value was -0.309 ± 0.19 kcal/mol.

Question: With “SAGGSSSVTEISISRSRQRPDASGRWVTEPVLPPGVYAPTTVVHENGVLTFNTVYDGKPVTETIPLSSAGGS [r16_500_JUSTAS]” as the sequence, how does the “folding stability dG unfold” value read?
Answer: Its value is -0.0547 ± 0.12 kcal/mol.

Question: For “SAGGSAGGSAGGRPIPLDEFRDMPPNWKIEFNNGKEVEIPADDIKKPIDKGDTVRIEPVPSAGGSAGGSAGG [r7_643_TrROS]”, which “folding stability dG unfold” value is on record?
Answer: Its value is 0.188 ± 0.098 kcal/mol.

Question: For “SAGGSAGGSAGGGPMIYTEETVEEVVKVGEKSIKRTVTTTKVEVPGKPGVVLETKVDWGGSAGGSAGGSAGG [r7_795_JUSTAS]”, which “folding stability dG unfold” value is on record?
Answer: Its value is 0.312 ± 0.092 kcal/mol.

Question: With “SAGGSAGGSAAEPPPPATIEVLVLNEDGYVYRAEIRVNEDGEITIEVEKIPVKPGESLEELSAGGSAGGSAG [r3_437_TrROS_Hall]” as the sequence, how does the “folding stability dG unfold” value read?
Answer: The value was 3.79 ± 0.35 kcal/mol.

Question: With “MTPEAFAGPGGRPLAELFLARFRRPVLDPETGLPTWEPAGVLVFPRETEPEELAAIFEALPELEEIEIAPAS [r1_132_TrMRF]” as the sequence, how does the “folding stability dG unfold” value read?
Answer: Its value is -0.149 ± 0.22 kcal/mol.

Question: For “SAGGSAGGSAGGGMPVPPVEVVEVSEEVRPLPPSSDKTVRRVTRTLPDGSTLTFEEPPESAGGSAGGSAGGS [r10_945_JUSTAS]”, which “folding stability dG unfold” value is on record?
Answer: Its value is 0.064 ± 0.062 kcal/mol.

Question: Which “folding stability dG unfold” value does the source give for “SAGGSAGGSAGGMVRTLDLPNLSEEEIEEIIKKNPNEVYEITFRPPNGPEVTKTIPTHHSAGGSAGGSAGGS [r10_408_JUSTAS]” here?
Answer: Its value is 0.524 ± 0.18 kcal/mol.

Question: Which “folding stability dG unfold” value does the source give for “SAGGSSNVGEVTIEIREPVNPERFVDPEYREKAIEEMKEKAEAKAEEIKKENPNVKVTVNISLLEPGSAGGS [r8_183_JUSTAS]” here?
Answer: Its value is -0.00749 ± 0.36 kcal/mol.

Question: For “SAGMLVRIETLPPGAATEEVVPMTPEEAKEYLEAQGYTVSTDPANPTMTFSHPDATVTVTFEPVPADLRSAG [r5_248_JUSTAS]”, which “folding stability dG unfold” value is on record?
Answer: Its value is 0.365 ± 0.15 kcal/mol.

Assay: folding stability dG unfold from chymotrypsin proteolysis; higher = more stable
How it was run: as §1

Question: Which “folding stability dG unfold” value does the source give for “SAGGSAGGSAGGVLYLPDDVKVELVEVTPDGVAKLRVYVYEKDDGDPLVPVPGYDPGAGSAGGSAGGSAGGS [r10_934_TrMRF]” here?
Answer: Its value is 0.126 ± 0.36 kcal/mol.
